Reference: patent US20250084169A1 (published 2025)
Where two headings read alike, the source gives them in different places.

Experiments:
[1] = biological target: T1, recombinant human Fc gamma RIIb/c (CD32b/c) (human, UniProt P31994 46-217)
T1 sequence (looked up): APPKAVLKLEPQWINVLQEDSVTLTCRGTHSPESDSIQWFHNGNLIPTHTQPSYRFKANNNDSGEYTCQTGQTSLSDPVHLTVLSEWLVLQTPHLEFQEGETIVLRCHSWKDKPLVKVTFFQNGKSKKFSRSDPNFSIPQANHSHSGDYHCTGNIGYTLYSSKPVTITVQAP

[2] = biological target: T2, recombinant human Fc gamma RI (CD64) (human, UniProt P12314 16-288)
T2 sequence (P12314 16-288 limits assumed): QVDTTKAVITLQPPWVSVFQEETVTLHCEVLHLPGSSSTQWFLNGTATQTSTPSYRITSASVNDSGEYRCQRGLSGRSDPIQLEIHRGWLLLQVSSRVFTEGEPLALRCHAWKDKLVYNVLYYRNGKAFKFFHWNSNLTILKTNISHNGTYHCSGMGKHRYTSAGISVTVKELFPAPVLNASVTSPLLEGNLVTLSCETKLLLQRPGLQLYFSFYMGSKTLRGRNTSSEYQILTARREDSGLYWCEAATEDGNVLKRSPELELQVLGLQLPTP

[3] = biological target: T3, recombinant human Fc gamma RIIa (CD32a) 131R (human, UniProt P12318 36-218)
T3 sequence (looked up): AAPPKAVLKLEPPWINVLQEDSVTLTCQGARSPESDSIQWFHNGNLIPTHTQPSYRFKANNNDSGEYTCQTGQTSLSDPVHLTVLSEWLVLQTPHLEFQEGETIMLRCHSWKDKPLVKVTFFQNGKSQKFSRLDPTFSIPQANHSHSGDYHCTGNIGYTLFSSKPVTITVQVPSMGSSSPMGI

[4] = biological target: T4, recombinant cynomolgus monkey CD19 (cynomolgus monkey, UniProt A0A2K5W8L9 20-292)
T4 sequence: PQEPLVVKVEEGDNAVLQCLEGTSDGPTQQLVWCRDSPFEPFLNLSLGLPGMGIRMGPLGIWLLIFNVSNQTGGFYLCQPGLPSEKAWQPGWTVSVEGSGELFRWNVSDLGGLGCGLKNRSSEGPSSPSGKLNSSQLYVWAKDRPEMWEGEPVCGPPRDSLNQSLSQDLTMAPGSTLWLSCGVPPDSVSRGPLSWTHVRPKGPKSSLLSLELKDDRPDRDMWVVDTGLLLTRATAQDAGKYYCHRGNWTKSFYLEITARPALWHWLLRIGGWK

[5] = biological target: T1, recombinant human Fc gamma RIIb/c …; remark: listed apart in the source
[6] = biological target: T5, recombinant human Fc gamma RIIIb (CD16b) (human, UniProt O75015 17-200)
T5 sequence (O75015 17-200 limits assumed): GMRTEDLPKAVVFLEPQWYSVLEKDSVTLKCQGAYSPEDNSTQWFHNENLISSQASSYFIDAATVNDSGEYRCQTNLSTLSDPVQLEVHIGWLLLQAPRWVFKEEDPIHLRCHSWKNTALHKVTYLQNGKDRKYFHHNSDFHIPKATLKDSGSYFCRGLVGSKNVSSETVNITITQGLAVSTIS

[7] = biological target: T6, recombinant human Fc gamma RIIa (CD32a) 131H (human, UniProt P12318 36-218)
T6 sequence (looked up): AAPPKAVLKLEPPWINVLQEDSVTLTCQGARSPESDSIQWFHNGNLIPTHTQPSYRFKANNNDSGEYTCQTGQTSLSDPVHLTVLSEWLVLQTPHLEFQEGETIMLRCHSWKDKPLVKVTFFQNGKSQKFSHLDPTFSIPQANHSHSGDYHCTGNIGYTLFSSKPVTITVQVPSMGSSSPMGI

[8] = biological target: T2, recombinant human Fc gamma RI (CD64); remark: listed apart in the source
[9] = biological target: T7, recombinant human Fc gamma RIIIa (CD16a) 158F (human, UniProt P08637 17-208)
T7 sequence (P08637 17-208 limits assumed): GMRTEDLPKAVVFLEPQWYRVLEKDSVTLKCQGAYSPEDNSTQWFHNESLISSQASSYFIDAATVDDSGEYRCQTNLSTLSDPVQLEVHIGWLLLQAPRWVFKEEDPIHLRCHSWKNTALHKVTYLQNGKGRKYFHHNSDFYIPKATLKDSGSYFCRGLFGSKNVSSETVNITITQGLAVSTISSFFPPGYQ

[10] = biological target: T3, recombinant human Fc gamma RIIa (CD32a) …; remark: listed apart in the source
[11] = biological target: T8, recombinant human Fc gamma RIIIa (CD16a) 158V (human, UniProt P08637 17-208)
T8 sequence (P08637 17-208 F176V limits assumed): as the sequence (P08637 17-208 limits assumed) above, with F160V counted along it

[12] = biological target: T9, cynomolgus monkey Fc gamma receptor CD32b (cynomolgus monkey)
[13] = biological target: T10, cynomolgus monkey Fc gamma receptor CD32a (cynomolgus monkey)
[14] = biological target: T11, cynomolgus monkey Fc gamma receptor CD16 (cynomolgus monkey, UniProt Q8SPW2 17-208)
T11 sequence (Q8SPW2 17-208 limits assumed): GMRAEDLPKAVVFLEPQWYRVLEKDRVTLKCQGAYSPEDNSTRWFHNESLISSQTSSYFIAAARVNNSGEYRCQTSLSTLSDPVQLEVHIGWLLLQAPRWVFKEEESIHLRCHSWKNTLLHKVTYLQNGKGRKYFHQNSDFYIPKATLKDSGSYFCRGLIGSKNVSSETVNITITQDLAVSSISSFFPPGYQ

human CD19 on cells = biological target: T12, human CD19 on cells (human, UniProt P15391 20-556)
T12 sequence (looked up): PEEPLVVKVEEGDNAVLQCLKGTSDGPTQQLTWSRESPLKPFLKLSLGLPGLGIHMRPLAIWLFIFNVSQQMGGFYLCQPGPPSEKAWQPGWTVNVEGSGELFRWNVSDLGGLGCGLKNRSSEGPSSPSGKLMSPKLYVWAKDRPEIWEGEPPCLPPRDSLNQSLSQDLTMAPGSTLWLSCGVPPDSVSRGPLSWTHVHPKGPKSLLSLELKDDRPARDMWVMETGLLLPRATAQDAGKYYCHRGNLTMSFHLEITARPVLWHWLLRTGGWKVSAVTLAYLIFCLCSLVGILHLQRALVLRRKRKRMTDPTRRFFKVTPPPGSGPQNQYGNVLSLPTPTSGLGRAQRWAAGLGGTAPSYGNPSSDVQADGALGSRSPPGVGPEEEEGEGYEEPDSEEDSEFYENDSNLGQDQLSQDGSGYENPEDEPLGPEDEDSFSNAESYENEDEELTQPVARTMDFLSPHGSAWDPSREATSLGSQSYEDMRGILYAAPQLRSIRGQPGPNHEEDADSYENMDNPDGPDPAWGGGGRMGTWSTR

[15] = biological target: T13, cynomolgus monkey CD19 on cells (cynomolgus monkey, UniProt A0A2K5W8L9 20-557)
T13 sequence: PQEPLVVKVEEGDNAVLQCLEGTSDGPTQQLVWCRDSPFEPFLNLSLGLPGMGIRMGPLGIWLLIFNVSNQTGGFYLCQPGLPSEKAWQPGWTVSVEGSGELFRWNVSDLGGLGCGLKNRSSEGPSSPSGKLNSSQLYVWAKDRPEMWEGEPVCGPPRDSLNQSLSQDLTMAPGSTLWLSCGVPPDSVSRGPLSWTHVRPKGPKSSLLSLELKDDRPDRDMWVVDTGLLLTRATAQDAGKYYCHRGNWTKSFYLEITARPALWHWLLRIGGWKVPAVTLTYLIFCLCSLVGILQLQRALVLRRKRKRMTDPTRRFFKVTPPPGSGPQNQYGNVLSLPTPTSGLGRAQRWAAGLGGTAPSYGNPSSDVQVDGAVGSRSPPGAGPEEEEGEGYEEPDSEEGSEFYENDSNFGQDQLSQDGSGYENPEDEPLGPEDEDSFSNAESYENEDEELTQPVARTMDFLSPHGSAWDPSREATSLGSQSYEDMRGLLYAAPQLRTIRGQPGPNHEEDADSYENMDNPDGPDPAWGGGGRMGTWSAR

[16] = biological target: T9, cynomolgus monkey Fc gamma receptor …; remark: listed apart in the source
[17] = biological target: T10, cynomolgus monkey Fc gamma receptor …; remark: listed apart in the source
[18] = biological target: T11, cynomolgus monkey Fc gamma receptor CD16; remark: listed apart in the source
recombinant human CD19 = biological target: T14, recombinant human CD19 (human, UniProt P15391 20-291)
T14 sequence (looked up): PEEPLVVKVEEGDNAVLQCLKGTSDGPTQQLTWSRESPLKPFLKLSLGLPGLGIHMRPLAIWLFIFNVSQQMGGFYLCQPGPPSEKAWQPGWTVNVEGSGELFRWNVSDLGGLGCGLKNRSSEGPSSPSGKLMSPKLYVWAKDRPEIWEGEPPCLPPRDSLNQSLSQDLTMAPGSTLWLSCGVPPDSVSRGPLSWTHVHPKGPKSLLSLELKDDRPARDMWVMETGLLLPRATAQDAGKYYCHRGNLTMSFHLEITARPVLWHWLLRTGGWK

[19] = biological target: T5, recombinant human Fc gamma RIIIb (CD16b); remark: listed apart in the source
[20] = biological target: T7, recombinant human Fc gamma RIIIa …; remark: listed apart in the source
[21] = biological target: T8, recombinant human Fc gamma RIIIa …; remark: listed apart in the source
[22] = biological target: T8, recombinant human Fc gamma RIIIa …; remark: listed apart in the source

B1: Tafasitamab-cxix (research grade biosimilar) (antibody, human IgG1, kappa)
heavy: EVQLVESGGGLVKPGGSLKLSCAASGYTFTSYVMHWVRQAPGKGLEWIGYINPYNDGTKYNEKFQGRVTISSDKSISTAYMELSSLRSEDTAMYYCARGTYYYGTRVFDYWGQGTLVTVSSASTKGPSVFPLAPSSKSTSGGTAALGCLVKDYFPEPVTVSWNSGALTSGVHTFPAVLQSSGLYSLSSVVTVPSSSLGTQTYICNVNHKPSNTKVDKKVEPKSCDKTHTCPPCPAPELLGGPDVFLFPPKPKDTLMISRTPEVTCVVVDVSHEDPEVQFNWYVDGVEVHNAKTKPREEQFNSTFRVVSVLTVVHQDWLNGKEYKCKVSNKALPAPEEKTISKTKGQPREPQVYTLPPSREEMTKNQVSLTCLVKGFYPSDIAVEWESNGQPENNYKTTPPMLDSDGSFFLYSKLTVDKSRWQQGNVFSCSVMHEALHNHYTQKSLSLSPG
light: DIVMTQSPATLSLSPGERATLSCRSSKSLQNVNGNTYLYWFQQKPGQSPQLLIYRMSNLNSGVPDRFSGSGSGTEFTLTISSLEPEDFAVYYCMQHLEYPITFGAGTKLEIKRTVAAPSVFIFPPSDEQLKSGTASVVCLLNNFYPREAKVQWKVDNALQSGNSQESVTEQDSKDSTYSLSSTLTLSKADYEKHKVYACEVTHQGLSSPVTKSFNRGEC
Kd [1]: 99.4 nM | Kd [2]: < 0.02 nM | Kd [3]: 39.1 nM | Kd [4]: 1800 nM | Kd [5]: 234 nM | Kd [6]: 176 nM | Kd [7]: 231 nM | Kd [8]: 5.6 nM | Kd [9]: 121 nM | Kd [10]: 203 nM | Kd [11]: 88.9 nM | Kd [12]: 152 nM | Kd [13]: 181 nM | Kd [14]: 49.5 nM | EC50 (human CD19 on cells): 1 nM | EC50 [15]: 57 nM | Kd [16]: 53 nM | Kd [17]: 76.2 nM | Kd [18]: 1.34 nM | Kd (recombinant human CD19): 1.4 nM | Kd [19]: 62.1 nM | Kd [20]: 15.3 nM | Kd [21]: 4.19 nM

B2: B19c66 (antibody, human IgG1, kappa)
light: not shown
heavy: not shown
chain: CPPCPAPELLGGPSVFLFPPKPKDTLMISRTPEVTCVVVDVSHEDPEVKFNWYVDGVEVHNAKTKPREEQYNSTYRVVSVLTVLHQDWLNGKEYKCKVSNKALPAPIEKTISKAKGQPREPQVYVYPPSRDELTKNQVSLTCLVKGFYPSDIAVEWESNGQPENNYKTTPPVLDSDGSFALVSKLTVDKSRWQQGNVFSCSVMHEALHNHYTQKSLSLSPGK
Kd (CD19 (target of Table 9)): 21.8 nM | Kd [22]: 234 nM
